Experimental data from patent publication US20070196354A1, “Method of treating diabetes by inhibiting degradation of at least one of crebl1, atf6, and hnf-4 alpha by htra” (priority 2003, published 2007).

Target: T1, HNF-4α (Homo sapiens, UniProt P41235)
T1 construct: expressed in transfected cells; host or cells: HEK293T
T1 sequence (P41235 10-474): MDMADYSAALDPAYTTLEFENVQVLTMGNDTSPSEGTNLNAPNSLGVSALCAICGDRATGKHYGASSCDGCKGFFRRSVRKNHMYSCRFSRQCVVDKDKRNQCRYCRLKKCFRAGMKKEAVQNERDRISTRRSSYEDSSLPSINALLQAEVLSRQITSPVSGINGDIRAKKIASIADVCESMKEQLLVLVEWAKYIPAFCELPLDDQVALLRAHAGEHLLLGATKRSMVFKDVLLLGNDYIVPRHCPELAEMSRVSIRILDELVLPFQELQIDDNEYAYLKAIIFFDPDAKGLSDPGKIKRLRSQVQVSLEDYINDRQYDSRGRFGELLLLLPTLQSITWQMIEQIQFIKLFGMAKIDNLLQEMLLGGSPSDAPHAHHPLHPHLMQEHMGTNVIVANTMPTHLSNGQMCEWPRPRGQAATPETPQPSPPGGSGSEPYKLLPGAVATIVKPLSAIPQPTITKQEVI
Test: In vitro protease assay, HNF-4α captured on resin
Assay type: biochemical
Conditions: 50 μg/ml, 37° C., overnight (O/N), anti-FLAG detection
Description: HNF-4α captured on the resin by immunoprecipitation was used in the experiments in order to eliminate the influence of proteinaceous impurities contained in the HNF-4α soluble fraction. More specifically, 300 μl of HNF-4α soluble fraction was dispensed to six tubes (Nos. 1 to 6), followed by adding 20 μl of protein G sepharose 4 FF (Amersham) of 50% slurry that had been subjected to blocking with BSA, to each of tubes, subjected to overturned mixing at 4° C. for 1 hour, and then subjected to centrifugation (10,000 rpm, 10 sec, 4° C.) to collect the supernatant, and thus the pre-treatment (pre-clean) was performed. The resultant supernatant was mixed with 0.4 μl (2 μg) of anti-FLAG antibody (Sigma) by overturned mixing at 4° C. for 3 hours, followed by adding 20 μl of protein G sepharose 4 FF that had been subjected to blocking with BSA, and then subjected to overturned mixing at 4° C. overnight. Thus, HNF-4α was captured on protein G sepharose 4 FF. […]

B1: mature HtrA2: SEQ ID NO: 4; mature protein generated from HtrA2 precursor by cleavage of N-terminal 133 residues, has protease activity (protein, listed as Homo sapiens)
chain: MAVPSPPPASPRSQYNFIADVVEKTAPAVVYIEILDRHPFLGREVPISNGSGFVVAADGLIVTNAHVVADRRRVRVRLLSGDTYEAVVTAVDPVADIATLRIQTKEPLPTLPLGRSADVRQGEFVVAMGSPFALQNTITSGIVSSAQRPARDLGLPQTNVEYIQTDAAIDFGNSGGPLVNLDGEVIGVNTMKVTAGISFAIPSDRLREFLHRGEKKNSSSGISGSQRRYIGVMMLTLSPSILAELQLREPSFPDVQHGVLIHKVILGSPAHRAGLRPGDVILAIGEQMVQNAEDVYEAVRTQSQLAVQIRRGRETLTLYVTPEVTE
modifications: mature HtrA2
  degradation of HNF-4α (band by western blotting): the band of HNF-4α was reduced significantly
